Assay results taken from patent publication US20100015126A1, “Methods of Binding of Cross-Beta Structures By Chaperones” (priority 2006, published 2010).

How the values were obtained:
[1] = Transmission electron microscopy (TEM); format: physicochemical; conditions: magnification 10K
Procedure: Transmission Electron Microscopy (TEM)
TEM images were collected using a Jeol 1200 EX transmission electron microscope (Jeol Ltd., Tokyo, Japan) at an excitation voltage of 80 kV. For each sample, the formvar and carbon-coated side of a 100-mesh copper or nickel grid was positioned on a 5 μl drop of protein solution for 5 minutes. Afterwards, it was positioned on a 100 μl drop of PBS for 2 minutes, followed by three 2-minute incubations with a 100 μl drop of distilled water. The grids were then stained for 2 minutes with a 100 μl drop of 2% (m/v) methylcellulose with 0.4% uranyl acetate pH 4. Excess fluid was removed by streaking the side of the grids over filter paper, and the grids were subsequently dried under a lamp. Samples were analysed at a magnification of 10K.

[2] = target: T1, recombinant human HSP90beta (Homo sapiens, UniProt P08238); experiment: ELISA: binding of HSP90 to immobilized (misfolded) protein ligands; conditions: 5 mM DTT in binding buffer
T1 construct: purchased Dr. S. Rüdiger, Cellular Protein Chemistry, Utrecht University
Procedure: Recombinant human HSP90beta was bought from Dr. S. Rüdiger (Cellular Protein Chemistry, Department of Chemistry, Faculty of Science, Utrecht University). HSP90beta eluted from an anion exchange column was supplied in 35 mM Bis-Tris/25mM Tris, 5 mM DTT, approximately 385 mM NaCl, approximately pH 9.0. The HSP90beta concentration was 5.0 μM (450 μg/ml with a MW of 90.000 Da; extinction coefficient of 53740 l/(mol*cm)). The supplied frozen stock is kept at −80° C. Before use, the stock is quickly thawed almost completely in a 37° C. water bath, and kept at wet ice. Before use, the HSP90beta solution is centrifuged for 5 minutes at 16,000*g at 4° C. During dilution of HSP90beta solution, 5 mM DTT should be incorporated in the dilution buffer, to keep free Cys residues. Thawed HSP90beta was aliquoted and snap frozen in liquid nitrogen before re-storage at −80° C.
Binding of chaperones to immobilized (misfolded) protein ligands was determined using an enzyme linked immuno sorbent assay (ELISA) approach. […] After 5 washes with wash buffer followed by two washes with PBS, binding of antibodies was assessed. […] Plates were read at 450 nm. Triplicates were averaged and standard deviations calculated. […]

immobilized BiP = target: T2, immobilized BiP (Homo sapiens, UniProt P11021); experiment: Depletion of solutions from misfolded proteins using immobilized BiP (ELISA); format: binding; conditions: BiP coated at 5 μg/ml; 1, 10, 100 μg/ml misfolded protein
T2 construct: The human BiP gene except the signal peptide encoding region was obtained from Geneart (Germany); linker […]; made in house; host or cells: HEK 293E cells, transient transfection, PABC674 vector; secreted into the medium
Procedure: We analysed whether recombinant human BiP with a C-terminal FLAG-tag and His-tag can be applied for depleting solutions from misfolded proteins comprising crossbeta structure.
BiP was coated at a concentration of 5 μg/ml at Greiner Microlon high-binding plates, for 1 h at room temperature with motion. As a negative control buffer was coated. ELISAs were performed essentially as described before. […] All binding buffers were PBS/0.1% (v/v) Tween20. Binding of dOVA was assayed using monoclonal anti-chicken egg albumin antibody (Sigma, A6075, 1:10.000 dilution) and RAMPO (Dako Cytomation, P0260, 1:3.000). […] Background signals obtained with buffer coated wells that were subsequently overlayed with protein solutions (see below), were subtracted from signals obtained with wells with coated BiP.

T1 sequence (P08238 whole entry): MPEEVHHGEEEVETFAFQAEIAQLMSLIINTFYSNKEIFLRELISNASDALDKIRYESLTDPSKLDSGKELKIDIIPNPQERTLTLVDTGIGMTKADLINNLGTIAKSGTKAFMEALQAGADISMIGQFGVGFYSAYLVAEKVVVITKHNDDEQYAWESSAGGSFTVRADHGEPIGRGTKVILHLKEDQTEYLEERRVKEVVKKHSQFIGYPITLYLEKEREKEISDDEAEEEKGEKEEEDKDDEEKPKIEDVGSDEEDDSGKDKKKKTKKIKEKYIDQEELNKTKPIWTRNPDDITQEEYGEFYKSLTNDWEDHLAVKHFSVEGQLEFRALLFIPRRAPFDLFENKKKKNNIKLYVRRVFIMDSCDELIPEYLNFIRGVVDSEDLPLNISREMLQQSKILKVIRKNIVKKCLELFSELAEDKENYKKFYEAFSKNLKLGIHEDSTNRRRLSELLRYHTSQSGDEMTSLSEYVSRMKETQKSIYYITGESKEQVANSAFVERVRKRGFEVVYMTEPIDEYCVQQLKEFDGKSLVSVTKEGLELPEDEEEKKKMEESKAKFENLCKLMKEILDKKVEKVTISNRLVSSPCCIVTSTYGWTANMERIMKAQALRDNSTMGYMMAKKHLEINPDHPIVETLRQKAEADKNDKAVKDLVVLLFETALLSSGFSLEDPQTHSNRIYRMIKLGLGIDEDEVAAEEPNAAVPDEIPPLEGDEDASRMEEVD
T2 sequence (P11021 19-654): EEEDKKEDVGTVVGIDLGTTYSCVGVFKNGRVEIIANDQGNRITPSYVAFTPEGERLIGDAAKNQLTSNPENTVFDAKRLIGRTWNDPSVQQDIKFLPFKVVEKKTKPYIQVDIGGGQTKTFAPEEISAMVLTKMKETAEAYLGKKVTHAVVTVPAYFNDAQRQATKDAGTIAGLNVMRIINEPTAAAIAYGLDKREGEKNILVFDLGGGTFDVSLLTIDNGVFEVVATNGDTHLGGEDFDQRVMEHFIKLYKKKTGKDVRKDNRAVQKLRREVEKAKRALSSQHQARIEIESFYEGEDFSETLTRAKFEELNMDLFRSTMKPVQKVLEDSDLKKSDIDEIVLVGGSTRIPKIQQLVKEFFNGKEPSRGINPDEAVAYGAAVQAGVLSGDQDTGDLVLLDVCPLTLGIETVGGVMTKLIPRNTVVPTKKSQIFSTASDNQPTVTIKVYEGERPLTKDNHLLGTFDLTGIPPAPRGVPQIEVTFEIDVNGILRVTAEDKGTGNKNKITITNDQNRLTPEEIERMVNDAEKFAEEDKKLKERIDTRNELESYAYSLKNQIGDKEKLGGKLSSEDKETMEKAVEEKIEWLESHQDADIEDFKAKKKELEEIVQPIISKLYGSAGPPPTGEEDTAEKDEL

Binding of concentration series of HSP90 to coated ligand [2]: did also not bind
Extraction from solution by immobilized BiP (immobilized BiP): can be extracted
B1: dOVA standard: heat-denatured chicken ovalbumin (protein)
chain: GSIGAASMEFCFDVFKELKVHHANENIFYCPIAIMSALAMVYLGAKDSTRTQINKVVRFDKLPGFGDSIEAQCGTSVNVHSSLRDILNQITKPNDVYSFSLASRLYAEERYPILPEYLQCVKELYRGGLEPINFQTAADQARELINSWVESQTNGIIRNVLQPSSVDSQTAMVLVNAIVFKGLWEKAFKDEDTQAMPFRVTEQESKPVQMMYQIGLFRVASMASEKMKILELPFASGTMSMLVLLPDEVSGLEQLESIINFEKLTEWTSSNVMEERKIKVYLPRMKMEEKYNLTSVLMAMGITDVFSSSANLSGISSAESLKISQAVHAAHAEINEAGREVVGSAEAGVDAASVSEEFRADHPFLFCIKHIATNAVLFFGRCVSP
Appearance on TEM images [1]: aggregates into non-fibrillar multimers
